Measured values reported in US20090022738A1 (MICROMET, published 2009).
Changes are numbered by the printed parent chain.

T1: CD19 (human, UniProt P15391 20-556)
T1 construct: whole, on cells; also called CD19 on NALM-6 cells
T1 sequence (looked up): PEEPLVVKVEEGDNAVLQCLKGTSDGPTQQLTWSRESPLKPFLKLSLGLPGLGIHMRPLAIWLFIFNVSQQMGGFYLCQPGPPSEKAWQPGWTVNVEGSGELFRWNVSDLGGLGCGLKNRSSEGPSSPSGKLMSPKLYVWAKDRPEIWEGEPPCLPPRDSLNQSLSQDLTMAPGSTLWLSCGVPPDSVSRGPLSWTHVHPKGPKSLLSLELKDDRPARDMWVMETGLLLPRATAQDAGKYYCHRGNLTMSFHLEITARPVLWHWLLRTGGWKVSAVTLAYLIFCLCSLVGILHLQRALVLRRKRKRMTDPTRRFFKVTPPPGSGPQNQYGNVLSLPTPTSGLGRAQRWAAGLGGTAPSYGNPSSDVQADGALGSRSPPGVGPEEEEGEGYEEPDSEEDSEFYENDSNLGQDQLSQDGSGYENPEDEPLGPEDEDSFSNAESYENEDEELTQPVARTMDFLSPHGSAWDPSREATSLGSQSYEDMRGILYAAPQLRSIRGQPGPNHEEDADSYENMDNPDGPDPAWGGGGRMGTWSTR

T2: Epithelial cell adhesion molecule (EpCAM) (human, UniProt P16422 24-314)
T2 construct: whole, on cells; also called 17-1A antigen; KSA
T2 sequence (looked up): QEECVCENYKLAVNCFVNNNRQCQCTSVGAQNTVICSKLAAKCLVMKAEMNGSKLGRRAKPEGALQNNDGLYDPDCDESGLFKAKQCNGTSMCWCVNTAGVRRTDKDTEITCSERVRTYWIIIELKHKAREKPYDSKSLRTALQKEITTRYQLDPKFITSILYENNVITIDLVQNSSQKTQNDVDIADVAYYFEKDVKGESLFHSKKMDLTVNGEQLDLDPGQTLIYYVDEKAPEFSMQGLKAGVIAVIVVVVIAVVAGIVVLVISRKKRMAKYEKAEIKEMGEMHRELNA

B1: anti-CD19×anti-CD3 (VH5/VL3) (SEQ ID NO.:194) (bispecific antibody)
chain: DIQLTQSPASLAVSLGQRATISCKASQSVDYDGDSYLNWYQQIPGQPPKLLIYDASNLVSGIPPRFSGSGSGTDFTLNIHPVEKVDAATYHCQQSTEDPWTFGGGTKLEIKGGGGSGGGGSGGGGSQVQLQQSGAELVRPGSSVKISCKASGYAFSSYWMNWVKQRPGQGLEWIGQIWPGDGDTNYNGKFKGKATLTADESSSTAYMQLSSLASEDSAVYFCARRETTTVGRYYYAMDYWGQGTTVTVSSGGGGSDVQLVQSGAEVKKPGASVKVSCKASGYTFTRYTMHWVRQAPGQGLEWIGYINPSRGYTNYADSVKGRFTITTDKSTSTAYMELSSLRSEDTATYYCARYYDDHYCLDYWGQGTTVTVSSGEGTSTGSGGSGGSGGADDIVLTQSPATLSLSPGERATLTCRASSSVSYMNWYQQKPGKAPKRWIYDTSKVASGVPARFSGSGSGTDYSLTINSLEAEDAATYYCQQWSSNPLTFGGGTKVEIK
notes: As m4: bispecific single chain, His-tagged; also called pEF anti-CD19×anti-CD3 (VH5/VL3)
B2: anti-CD19×anti-CD3 (VH5/VL2) (SEQ ID NO.:192) (bispecific antibody)
chain: B1 chain with T414S, S419Q
notes: As m4: bispecific single chain, His-tagged; also called pEF anti-CD19×anti-CD3 (VH5/VL2); anti-CD3 (VH5/VK2)
B3: deimmunized anti-CD3 (VH5/VL2)×3-1 (SEQ ID NO.:31) (bispecific antibody)
chain: DVQLVQSGAEVKKPGASVKVSCKASGYTFTRYTMHWVRQAPGQGLEWIGYINPSRGYTNYADSVKGRFTITTDKSTSTAYMELSSLRSEDTATYYCARYYDDHYCLDYWGQGTTVTVSSGEGTSTGSGGSGGSGGADDIVLTQSPATLSLSPGERATLSCRASQSVSYMNWYQQKPGKAPKRWIYDTSKVASGVPARFSGSGSGTDYSLTINSLEAEDAATYYCQQWSSNPLTFGGGTKVEIKSGGGGSEVQLLEQSGAELVKPGASVKISCKASGYAFTNYWLGWVKQRPGHGLEWIGDLFPGSGNTHYNERFRGKATLTADKSSSTAFMQLSSLTSEDSAVYFCARLRNWDEAMDYWGQGTTVTVSSGGGGSGGGGSGGGGSELVMTQSPSYLAASPGETITINCRASKSISKYLAWYQEKPGKTNKLLIYSGSTLQSGIPSRFSGSGSGTDFTLTISSLEPEDFAMYYCQQHNEYPYTFGGGTKLEIK
notes: Bispecific single chain, VH(CD3)-VL(CD3)-VH(EpCAM)-VL(EpCAM); detected by anti-His
B4: deimmunized anti-CD3 (VH5/VL2)×5-10 (SEQ ID NO.:37) (bispecific antibody)
chain: DVQLVQSGAEVKKPGASVKVSCKASGYTFTRYTMHWVRQAPGQGLEWIGYINPSRGYTNYADSVKGRFTITTDKSTSTAYMELSSLRSEDTATYYCARYYDDHYCLDYWGQGTTVTVSSGEGTSTGSGGSGGSGGADDIVLTQSPATLSLSPGERATLSCRASQSVSYMNWYQQKPGKAPKRWIYDTSKVASGVPARFSGSGSGTDYSLTINSLEAEDAATYYCQQWSSNPLTFGGGTKVEIKSGGGGSEVQLLEQSGAELVRPGTSVKISCKASGYAFTNYWLGWVKQRPGHGLEWIGDIFPGSGNIHYNEKFKGKATLTADKSSSTAYMQLSSLTFEDSAVYFCARLRNWDEPMDYWGQGTTVTVSSGGGGSGGGGSGGGGSELVMTQSPSSLTVTAGEKVTMSCKSSQSLLNSGNQKNYLTWYQQKPGQPPKLLIYWASTRESGVPDRFTGSGSGTDFTLTISSVQAEDLAVYYCQNDYSYPLTFGAGTKLEIK
notes: Bispecific single chain, VH(CD3)-VL(CD3)-VH(EpCAM)-VL(EpCAM); expressed in CHO with a leader peptide; detected by anti-His
B5: deimmunized anti-CD3 (VH5/VL2)×4-7 (SEQ ID NO.:33) (bispecific antibody)
chain: DVQLVQSGAEVKKPGASVKVSCKASGYTFTRYTMHWVRQAPGQGLEWIGYINPSRGYTNYADSVKGRFTITTDKSTSTAYMELSSLRSEDTATYYCARYYDDHYCLDYWGQGTTVTVSSGEGTSTGSGGSGGSGGADDIVLTQSPATLSLSPGERATLSCRASQSVSYMNWYQQKPGKAPKRWIYDTSKVASGVPARFSGSGSGTDYSLTINSLEAEDAATYYCQQWSSNPLTFGGGTKVEIKSGGGGSEVQLLEQSGAELARPGASVKLSCKASGYTFTNYGLSWVKQRPGQVLEWIGEVYPRIGNAYYNEKFKGKATLTADKSSSTASMELRSLTSEDSAVYFCARRGSYDTNYDWYFDVWGQGTTVTVSSGGGGSGGGGSGGGGSELVMTQTPLSLPVSLGDQASISCRSSQSLVHSNGNTYLHWYLQKPGQSPKLLIYKVSNRFSGVPDRFSGSGSGTDFTLKISRVEAEDLGVYFCSQSTHVPYTFGGGTKLEIK
notes: Bispecific single chain, VH(CD3)-VL(CD3)-VH(EpCAM)-VL(EpCAM); detected by anti-His; also called anti-CD3 (VH5/VL2)x4-7
B6: deimmunized anti-CD3 (VH5/VL2)×4-7 (VL-VH) (SEQ ID NO.:35) (bispecific antibody)
chain: DVQLVQSGAEVKKPGASVKVSCKASGYTFTRYTMHWVRQAPGQGLEWIGYINPSRGYTNYADSVKGRFTITTDKSTSTAYMELSSLRSEDTATYYCARYYDDHYCLDYWGQGTTVTVSSGEGTSTGSGGSGGSGGADDIVLTQSPATLSLSPGERATLSCRASQSVSYMNWYQQKPGKAPKRWIYDTSKVASGVPARFSGSGSGTDYSLTINSLEAEDAATYYCQQWSSNPLTFGGGTKVEIKSGGGGSELVMTQTPLSLPVSLGDQASISCRSSQSLVHSNGNTYLHWYLQKPGQSPKLLIYKVSNRFSGVPDRFSGSGSGTDFTLKISRVEAEDLGVYFCSQSTHVPYTFGGGTKLEIKGGGGSGGGGSGGGGSEVQLLEQSGAELARPGASVKLSCKASGYTFTNYGLSWVKQRPGQVLEWIGEVYPRIGNAYYNEKFKGKATLTADKSSSTASMELRSLTSEDSAVYFCARRGSYDTNYDWYFDVWGQGTTVTVSS
notes: Bispecific single chain, VH(CD3)-VL(CD3)-VL(EpCAM)-VH(EpCAM); detected by anti-His; also called anti-CD3 (VH5/VL2)x4-7 (VL-VH)

These binders were tested against T1, CD19 (assay: FACS, crude supernatant on CD19-positive NALM-6 cells; negative control MFI ca. 3).
Protocol: (§1) In order to analyze the binding efficacy of the deimmunized constructs to CD3 and CD19 a FACS-based assay was performed. Initially, crude supernatants were tested for binding on CD3-enriched PBMCs or CD19-positive NALM-6 cells. Cells were incubated with non-diluted supernatants for 30 minutes at 8° C. Upon two wash steps the cells were labeled with an anti-His antibody (Qiagen) under the same conditions. After additional wash steps binding of the constructs was detected with a FITC-conjugated sheep anti-mouse antibody (Sigma). Cells were analyzed with a FACS Calibur cytometer (B&D). As controls supernatants of anti-CD19×anti-CD3 and GFP-transfected cells were included. […] The positive control, which was a non-deimmunized anti-CD19×anti-CD3 construct reached a MFI of around 60 showing that the deimmunized constructs comprising anti-CD3 (VH5/VL1) (SEQ ID NO.:190), anti-CD3 (VH5/VL2) (SEQ ID NO.:192), anti-CD3 (VH5/VL3) (SEQ ID NO.:194), anti-CD3 (VH7/VL1) (SEQ ID NO.:196), anti-CD3 (VH7/VL2) (SEQ ID NO.:198) and anti-CD3 (VH7/VL3) (SEQ ID NO.:200) bound CD3 with extremely high efficacy.
The FACS-based binding assay was also carried out for CD19. In this experiment CD19 and a secondary antibody was as a negative control. In this experiment, all assayed constructs achieved a MFI of at least 80 while the MFI of the negative control was ca. 3.
B1 gave an MFI of no less than 80 MFI. B2 was tested, and the MFI was no less than 80 MFI.

The binders below were run against T3, human CD3 (human, UniProt P07766 23-207; P04234 22-171; P09693 23-182) (assay: FACS, 10 µg/ml on Jurkat cells).
T3 construct: whole, on cells; also called CD3 antigen; human CD3 complex
Protocol: (§2) Binding of the bispecific single chain molecules with anti-CD3 part in N-terminal orientation to EpCAM and CD3 were confirmed by FACS analyses. For that purpose the EpCAM positive human gastric cancer cell line Kato III (ATCC HTB-103) was used.
(§3) Cells were cultured according to the recommendations of the supplier and a number of 200000 cells was incubated with 10 μg/ml of the construct in 50 μl PBS with 2% FCS (fetal calf serum). The binding of the construct was detected with an anti-His antibody (Penta-His Antibody, obtained from Qiagen, Hilden, FRG) at 2 μg/ml in PBS with 2% FCS. […] The samples were measured on a FACSscan (BD biosciences, Heidelberg, FRG).
B3: binds. B4: binds. B5: binds. B6: binds.

These binders were tested against T2, Epithelial cell adhesion molecule … (assay: FACS, 10 µg/ml on EpCAM positive Kato III cells).
Protocol: as §2, §3
B3: binds. B4: binds. B5: binds. B6: binds.

What follows are binders tested against T3, human CD3 (assay: FACS, non-diluted crude supernatant on CD3-enriched PBMCs; anti-His + FITC anti-mouse).
Protocol: as §1
With B1 the MFI was no less than 90 MFI and the “fold over the negative control (secondary antibody only, MFI ca. 3.5)” value was roughly 25 fold. With B2 the MFI was no less than 90 MFI and the “fold over the negative control (secondary antibody only, MFI ca. 3.5)” value was roughly 25 fold.
